Reference: PMC11555707, “Histone deacetylase 7 activates 6-phosphogluconate dehydrogenase via an enzyme-independent mechanism that involves the N-terminal protein-protein interaction domain” (Biochemical Journal, 2024)

Target: the molecule itself
Assay: cross-linking; lysates of transfected HEK293 cells (50 mM HEPES, 150 mM NaCl, 0.5% Triton X-100) incubated with 2 mM disuccinimidyl suberate (DSS) for 30 min at room temperature, quenched with 50 mM Tris-HCl; immunoblot with anti-Flag; 6PGD alone or with HDAC7, N-HDAC7, C-HDAC7 or SOX7

B1: 6-phosphogluconate dehydrogenase (6PGD), Flag-tagged (enzyme, mouse, UniProt Q9DCD0 1-483, looked up)
chain: MAQADIALIGLAVMGQNLILNMNDHGFVVCAFNRTVSKVDDFLANEAKGTKVVGAQSLKDMVSKLKKPRRVILLVKAGQAVDDFIEKLVPLLDTGDIIIDGGNSEYRDTTRRCRDLKAKGILFVGSGVSGGEEGARYGPSLMPGGNKEAWPHIKAIFQAIAAKVGTGEPCCDWVGDEGAGHFVKMVHNGIEYGDMQLICEAYHLMKDVLGMRHEEMAQAFEEWNKTELDSFLIEITANILKYRDTDGKELLPKIRDSAGQKGTGKWTAISALEYGMPVTLIGEAVFARCLSSLKEERVQASQKLKGPKVVQLEGSKKSFLEDIRKALYASKIISYAQGFMLLRQAATEFGWTLNYGGIALMWRGGCIIRSVFLGKIKDAFERNPELQNLLLDDFFKSAVDNCQDSWRRVISTGVQAGIPMPCFTTALSFYDGYRHEMLPANLIQAQRDYFGAHTYELLTKPGEFIHTNWTGHGGSVSSSSYNA
notes: mouse 6-phosphogluconate dehydrogenase (6PGD); A shorter ~40 kDa form (6PGD-s), also detected by anti-Flag, arises in the same cells; also called full-length 6PGD; source: HEK293, transfected (pCMV-based construct), in lysate
- stoichiometry N: 2
